Test results: patent US20160046944, “APTAMER TO IL-17 AND USE THEREOF” (THE UNIVERSITY OF TOKYO, published 2016)

T1: IL-17 (Homo sapiens, UniProt Q16552 Q16552:24-155)
T1 sequence: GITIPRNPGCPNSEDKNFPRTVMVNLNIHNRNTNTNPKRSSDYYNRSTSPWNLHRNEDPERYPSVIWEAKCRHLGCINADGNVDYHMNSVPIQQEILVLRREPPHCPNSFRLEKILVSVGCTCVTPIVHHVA

T2: IL-17 (IL-17A) (Homo sapiens, UniProt Q16552 Q16552:24-155)
T2 sequence: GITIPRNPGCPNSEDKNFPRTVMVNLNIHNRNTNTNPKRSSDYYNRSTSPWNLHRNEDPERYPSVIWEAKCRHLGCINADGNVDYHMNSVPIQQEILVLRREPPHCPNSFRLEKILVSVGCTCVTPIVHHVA


How the values were obtained:
Details in all cases: chain copies: 2
IL-17 [1] = target: T1, IL-17; assay: SPR; IL-17R-Fc on chip
Experimental: Whether aptamers shown by aptamer Nos. 1-49 inhibit the binding of IL-17 and IL-17 receptor was evaluated by the surface plasmon resonance method.
For the measurement, BIAcore2000 manufactured by BIAcore was used. […] As an analyte, IL-17 (100 or 150 nM) and an aptamer (50 or 100 nM) shown by aptamer No. 1-49 were mixed, maintained for 15 min and after that the mixture was flown.

IL-17 [2] = target: T1, IL-17; assay: cell_activity; NIH3T3 IL-6 release
Experimental: First, human IL-17 and the aptamer produced in Example 1-1 were pre-incubated at 37° C. for 30 min, and added to NIH3T3 cell (ATCC, CRL1658) together with mouse TNFα (2 ng/mL). Then, after incubation for 24 hr, the culture supernatant was collected, and the amount of IL-6 was measured by BD Cytometric Bead Array (BD Biosciences). The IL-17 inhibitory action of each aptamer was determined from the amount of IL-6. For comparison with the aptamer of the present invention, a conventionally-known aptamer (aptamer No. 50) against IL-17 was used.

IL-17 (IL-17A) = target: T2, IL-17 (IL-17A); assay: cell_activity; IL-6 release, NIH3T3
Experimental: First, human IL-17 and the aptamer produced in Example 1-2 were pre-incubated at 37° C. for 30 min, and added to NIH3T3 cell (ATCC, CRL1658) together with mouse TNFα (2 ng/mL). Then, after incubation for 24 hr, the culture supernatant was collected, and the production amount of IL-6 was measured by ELISA method described below. The IL-17 inhibitory action of each aptamer was determined from the production amount of IL-6. For comparison with the aptamer of the present invention, a conventionally-known aptamer (aptamer No. 50) against IL-17 was used.
ELISA method for verifying IL-17 inhibitory action of aptamer: A microtiter plate for ELISA was coated with rat anti-mouse IL-6 antibody (BD Biosciences, 2 μg/mL; 100 μL/well) diluted with PBS, and incubated at 4° C. overnight. The next day, the microtiter plate was washed 3 times with PBS/0.05% Tween 20, and applied blocking with PBS/1% BSA (200 μL/well) at room temperature for 2 hr. Then, the plate was washed 3 times with PBS/0.05% Tween 20. Recombinant mouse IL-6 (BD Biosciences; 100 μL/well) serially diluted with PBS/1% BSA/0.05% Tween 20 or culture supernatants (100 μL/well) were added to the plate. After incubation at room temperature for 2 hr, the plate was washed 3 times with PBS/0.05% Tween 20. Then, 100 μL/well of biotin conjugated rat anti-mouse IL-6 antibody (BD Biosciences) was added to the plate at final dilution of 1/500, and the mixture was reacted at room temperature for 1 hr. After washing 3 times with PBS/0.05% Tween 20, 100 μL/well of alkaline phosphatase conjugated streptavidin was added at final dilution of 1/1000. After 30 min at room temperature, the plate was again washed 4 times with PBS/0.05% Tween 20, and a substrate (1-Step PNPP; Thermo Fisher Scientific Inc; 100 μL/well) was added. After 15 min, aqueous sodium hydroxide solution (2N: 50 μL/well) was added to stop the reaction, and the plate was read on a microtiter reader (Bio-Rad) by using a 405 nm filter.

Binder | binding signal (IL-17 [1]) | IC50 (IL-17 [2]) | IC50 (IL-17 (IL-17A))
GGGGUAGCCGGAGGAGTCAGTAAUCGGUACCCC (mixed, 2'-OMe (M), 2'-F (F), PS (S) as marked; uppercase DNA [2'-OMe: 1-5,8,9,11,14,15,22-27,29; 2'-F: 12,18,19,28; PS: 7]) [aptamer No. 16] | 27.9 % IL-17/IL-17R binding remaining | 0.25 nM | –
GGGUAGCCGGAGGAGUCAGUAAUCGGUACCC (mixed, LNA (L), 2'-F (F), PS (S), mc methylcytosine as marked; SEQ ID NO:1 [LNA at 1-3,29-31 (29-31 methylcytosine); 2'-F at 4,7,8,16,17,20,23,24,27; PS at 6,9]) [aptamer No. 1] | 28.6 % IL-17/IL-17R binding remaining | 1.17 nM | –
GGGUAGCCGGAGGAGTCAGTAAUCGGUACCC (mixed, g(M)g(M)g(M)u(M)a(M)g(S)c(M)c(M)Gg(M)a(F)gg(M)a(M)g(S)Tc(F)a(F)g(M)Ta(M)a(M)u(M)c(M)g(M)g(M)u(F)a(M)c(M)c(M)c(M)) [aptamer No. 60] | – | – | 2.35 nM
GGGUAGCCGGAGGAGTCAGTGAUCGGUACCC (mixed, g(M)g(M)g(M)u(M)a(M)g(S)c(M)c(M)Gg(M)a(M)gg(M)a(M)g(S)Tc(M)a(F)g(S)Tga(M)u(M)c(M)g(M)g(M)u(M)a(M)c(M)c(M)c(M)) [aptamer No. 87] | – | – | 3.23 nM
GGGUAGCCGGAGGAGTCAGTAAUCGGUACCC (mixed, g(M)g(M)g(M)u(M)a(M)g(S)c(M)c(M)Gg(M)a(F)gg(M)a(M)g(S)Tc(F)a(F)g(S)Ta(M)a(M)u(M)c(M)g(M)g(M)u(F)a(M)c(M)c(M)c(M)) [aptamer No. 63] | – | – | 0.81 nM
GGGUAGCCGGAGGAGTCAGTAAUCGGUACCC (mixed, g(M)g(M)g(M)u(M)a(M)gc(M)c(M)gg(M)a(F)gg(M)a(M)gTc(F)a(F)gTa(M)a(M)u(M)c(M)g(M)g(M)u(F)a(M)c(M)c(M)c(M)) [aptamer No. 75] | – | – | 1.33 nM
GGGUAGCCGGAGGAGTCAGTAAUCGGTACCC (mixed, 2'-OMe (M), 2'-F (F), PS (S) as marked; uppercase DNA [2'-OMe: 1-4,7,8,10,13,14,23-26,28-31; 2'-F: 17; PS: 6]) [aptamer No. 21] | – | 0.39 nM | –
GGGUAGCCGGAGGAGUCAGUAAUCGGUACCC (mixed, g(M)g(M)g(M)u(M)a(M)g(S)c(M)c(M)Gg(M)a(F)gg(M)a(M)g(S)u(F)c(F)a(F)g(S)u(F)a(M)a(M)u(M)c(M)g(M)g(M)u(M)a(M)c(M)c(M)c(M)) [aptamer No. 73] | – | – | 3.46 nM
GGGUAGCCGGAGGAGUCAGUAAUCGGUACCC (mixed, g(M)g(M)g(M)u(M)a(M)g(S)c(M)c(M)Gg(M)a(F)gg(M)a(M)g(S)u(F)c(F)a(F)g(S)u(F)a(M)a(M)u(M)c(M)g(M)g(M)u(F)a(M)c(M)c(M)c(M)) [aptamer No. 70] | – | – | 3.28 nM
GGGUAGCCGGAGGAGTCAGTAAUCGGUACCC (mixed, 2'-OMe (M), 2'-F (F) as marked; uppercase DNA [1,2,3,4,7,8,10,11,13,14,17,18,21,22,23,24,25,26,27,28]) [aptamer No. 12] | 24.4 % IL-17/IL-17R binding remaining | 0.52 nM | –
GGGUAGCCGGAGGAGUCAGUAAUCGGUACCC (mixed, g(M)g(M)g(M)u(M)a(M)g(S)c(M)c(M)Gg(M)a(F)gg(M)a(M)gu(F)c(F)a(F)gu(F)a(M)a(M)u(M)c(M)g(M)g(M)u(M)a(M)c(M)c(M)c(M)) [aptamer No. 72] | – | – | 2.24 nM
GGGUAGCCGGAGGAGTCAGTAAUCGGUACCC (mixed, 2'-OMe (M), 2'-F (F), PS (S) as marked; uppercase DNA [1,2,3,4,6,7,8,10,11,13,14,17,18,23,24,25,26,27,28]) [aptamer No. 8] | 15.3 % IL-17/IL-17R binding remaining | 0.49 nM | –
GGGUAGCCGGAGGAGTCAGTAAUCGGUACCC (mixed, g(M)g(M)g(M)u(M)a(M)g(S)c(M)c(M)Gg(M)a(F)gg(M)a(M)gTc(F)a(F)gTa(M)a(M)u(M)c(M)g(M)g(M)u(F)a(M)c(M)c(M)c(M)) [aptamer No. 62] | – | – | 0.69 nM
GGGUAGCCGGAGGAGTCAGTAAUCGGUACCC (mixed, g(M)g(M)g(M)u(M)a(M)g(S)c(M)c(M)Gg(M)a(F)gg(M)a(M)g(S)Tc(F)a(F)g(S)Ta(M)a(M)u(M)c(M)g(M)g(M)u(M)a(M)c(M)c(M)c(M)) [aptamer No. 66] | – | – | 1.21 nM
GGGUAGCCGGAGGAGTCAGTAAUCGGUACCC (mixed, 2'-OMe (M), 2'-F (F), PS (S) as marked; uppercase DNA; (NI) printed, likely (M) [1,2,3,4,5,6,7,8,10,13,14,17,18,21,22,23,24,25,26,27]) [aptamer No. 6] | 25.3 % IL-17/IL-17R binding remaining | 0.77 nM | –
GGGUAGCCGGAGGAGUCAGUAAUCGGUACCC (ssRNA, g(M)g(M)g(M)u(M)a(M)gc(M)c(M)gg(M)a(F)gg(M)a(M)gu(F)c(F)a(F)gu(F)a(M)a(M)u(M)c(M)g(M)g(M)u(M)a(M)c(M)c(M)c(M)) [aptamer No. 79] | – | – | 2.25 nM
GGGUAGCCGGAGGAGUCAGUAAUCGGUACCC (mixed, g(M)g(M)g(M)u(M)a(M)g(S)c(M)c(M)Gg(M)a(M)gg(M)a(M)g(S)u(F)c(F)a(F)g(S)u(F)a(M)a(M)u(M)c(M)g(M)g(M)u(F)a(M)c(M)c(M)c(M)) [aptamer No. 85] | – | – | 0.96 nM
GGGUAGCCGGAGGAGTCAGTAAUCGGUACCC (mixed, 2'-OMe (M), 2'-F (F), PS (S) as marked; uppercase DNA [1,2,3,4,6,7,8,10,11,13,14,17,18,21,22,23,24,25,26,27,28]) [aptamer No. 9] | 8.94 % IL-17/IL-17R binding remaining | 0.64 nM | –
GGGUAGCCGGAGGAGTCAGTGAUCGGUACCC (mixed, g(M)g(M)g(M)u(M)a(M)g(S)c(M)c(M)Gg(M)a(M)gg(M)a(M)g(S)Tc(M)a(F)g(S)Tg(M)a(M)u(M)c(M)g(M)g(M)u(M)a(M)c(M)c(M)c(M)) [aptamer No. 86] | – | – | 5.16 nM
GGGUAGCCGGAGGAGUCAGUAAUCGGUACCC (mixed, g(M)g(M)g(M)u(M)a(M)g(S)c(M)c(M)Gg(M)a(F)gg(M)a(M)gu(F)c(F)a(F)gu(F)a(M)a(M)u(M)c(M)g(M)g(M)u(F)Ac(M)c(M)c(M)) [aptamer No. 80] | – | – | 1.52 nM
GGGUAGCCGGAGGAGTCAGTAAUCGGUACCC (mixed, g(M)g(M)g(M)u(M)Ag(S)c(M)c(M)Gg(M)a(F)gg(M)a(M)g(S)Tc(F)a(F)g(S)Ta(M)a(M)u(M)c(M)g(M)g(M)u(F)a(M)CCC) [aptamer No. 56] | – | – | 0.52 nM
GGGUAGCCGGAGGAGTCAGTAAUCGGUACCC (mixed, g(M)g(M)g(M)u(M)a(M)g(S)c(M)c(M)Gg(M)a(F)gg(M)a(M)gTc(F)a(F)gTa(M)a(M)u(M)c(M)g(M)g(M)u(M)a(M)c(M)c(M)c(M)) [aptamer No. 65] | – | – | 0.67 nM
